This note sets out measurements from patent US20250270301A1 (GEN2 NEUROSCIENCE, published 2025).

Read-outs that look alike come from different tables or passages of the source.

One assay deals with T1, Bovine serum albumin (bovine, UniProt P02769 25-607).
T1 construct: also called BSA
Description: ELISA on 1% BSA, HEK supernatant, anti-human IgG-HRP, n=1. The procedure:
FIG. 7. A panel of humanised anti-tau IgG bind to full length recombinant 2N4R tau in an ELISA format. Supernatants from HEK cells transiently transfected with each IgG clone were tested at 1:100 for binding to full length recombinant 2N4R tau (solid bars). […] Binding of anti-tau hIgG1 was detected using an HRP-conjugated anti-human secondary antibody and data are shown from a representative experiment (n=1 replicate).
Antigen was removed from wells and the plates were then blocked for 1 hour at RT with 5% dried milk in 1×TBS. Blocking solution was removed, HEK293 cell supernatant (1:100 in 1% BSA/1×TBS) was added to relevant wells, and plates were incubated for 1 hour at RT with gentle shaking. Plates were then washed four times with TBS/0.1% Tween (TBST). Goat anti-human IgG-HRP antibody (Thermo Fisher Scientific, Waltham, MA, USA), diluted 1:2000 in 5% milk/TBS, was added to each well and plates were incubated for 1 hour at RT with gentle shaking before being washed four times with TBST. 3,3′,5,5′-tetramethylbenzidine (TMB) ELISA solution was added to each well and plates were incubated for 15 mins at RT. An equal volume of 1 M sulfuric acid was added to each well and OD was measured at 450 nm.
In general terms: An ELISA detects its analyte on a solid surface through an enzyme-linked reagent.

Assay [1] has as its target T2, full length recombinant human 2N4R tau (human, UniProt P10636 1-758).
T2 construct: bought from rPeptide; pHrodo Red maleimide-labelled where it stands in uptake assays; also called tau1-441; full length tau
Nature of the assay: SPR SCK, IgG on Protein A, tau in flow. The procedure: 21.5 Assessment of antibody binding to tau (Biacore SCK analysis): Binding of anti-tau hIgG1 to full length recombinant 2N4R tau (Rpeptide; SEQ ID NO: 2) was assessed using the Biacore T200 (GE Healthcare, Chicago, IL, USA) running Biacore T200 Evaluation Software V2.0.1. hIgG1 were immobilised on a Protein A capture sensor chip in running buffer (HBS-EP+ buffer containing 1 mg/mL BSA) at 25° C., captured to ˜50 RU at 10 μL/min. For single-cycle kinetics experiments, recombinant 2N4R tau was flowed at concentrations ranging from 1.25 nM to 10 nM (2-fold dilutions) with an association time of 60 s and a dissociation time of 200 s. Curves were compared to a reference cell that was mock immobilized (no antibody present).

Assay [2] has as its target T2, full length recombinant human 2N4R tau. Nature of the assay: SPR SCK, IgG on Protein A, tau in flow. This is another data set of the same source.

T1 sequence (P02769 25-607 limits assumed): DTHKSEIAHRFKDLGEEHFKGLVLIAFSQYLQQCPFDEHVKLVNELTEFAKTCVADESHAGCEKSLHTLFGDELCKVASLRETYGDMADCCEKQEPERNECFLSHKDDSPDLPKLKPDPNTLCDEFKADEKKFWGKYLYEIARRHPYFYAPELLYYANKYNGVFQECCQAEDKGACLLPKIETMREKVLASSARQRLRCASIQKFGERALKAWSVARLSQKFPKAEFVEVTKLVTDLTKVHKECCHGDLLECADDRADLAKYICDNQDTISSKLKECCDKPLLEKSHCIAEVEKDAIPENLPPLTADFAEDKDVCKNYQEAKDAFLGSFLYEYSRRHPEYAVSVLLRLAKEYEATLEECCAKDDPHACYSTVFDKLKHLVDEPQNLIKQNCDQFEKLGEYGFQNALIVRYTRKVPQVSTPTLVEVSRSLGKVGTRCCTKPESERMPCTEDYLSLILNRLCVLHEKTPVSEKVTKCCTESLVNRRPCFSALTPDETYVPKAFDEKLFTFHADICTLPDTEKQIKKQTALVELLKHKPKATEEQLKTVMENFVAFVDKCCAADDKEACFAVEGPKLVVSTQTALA
T2 sequence (P10636 other isoform, or with tags, fused parts or gaps limits assumed): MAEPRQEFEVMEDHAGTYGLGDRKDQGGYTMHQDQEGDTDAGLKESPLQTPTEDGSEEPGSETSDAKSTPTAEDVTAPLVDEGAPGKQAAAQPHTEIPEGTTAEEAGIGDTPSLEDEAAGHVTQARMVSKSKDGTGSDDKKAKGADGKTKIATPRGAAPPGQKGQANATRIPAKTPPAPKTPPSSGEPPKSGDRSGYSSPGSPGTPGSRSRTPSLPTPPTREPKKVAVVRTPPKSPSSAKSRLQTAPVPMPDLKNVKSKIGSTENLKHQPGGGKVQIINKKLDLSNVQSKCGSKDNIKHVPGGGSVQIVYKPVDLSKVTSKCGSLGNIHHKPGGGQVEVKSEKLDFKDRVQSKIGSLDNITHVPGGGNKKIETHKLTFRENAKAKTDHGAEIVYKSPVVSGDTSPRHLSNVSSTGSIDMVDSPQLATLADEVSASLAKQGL

B1: #44 VH3VK2 humanised hIgG1 (antibody, V domains shown)
VH: QVQLQESGPGLVKPSETLSLTCTVSGIDLSSYAMAWVRQAPGKGLEWIGCIDRRGGTFYASWVKGRFTISKTSTTVDLQMTSLTAEDTATYFCARDSGAFDPWGQGTLVTVSS
VL: QIVMTQSPSSLSASVGDRVTITCQASQSVYDNYLAWYQQKPGQPPKLLIHAASNLASGVPSRFKGSGSGTEFTLTISSLQPDDFATYYCLGEFSCTTTDCNVFGGGTKVEIK
notes: also called VH3Vκ2
Consider B1, for which the binding result in the assay with Bovine serum albumin is “no binding (tested: supernatant 1:100)”. Moreover, in assay [1], the Kd stood at 7.64 nM, the “Relative KD (to VH0VK0)” value came to 1.99, the koff was found to be 0.0356 s⁻¹ and the on-rate (kon) was 4.66e+06 M⁻¹ s⁻¹.

B2: #44_VH4VK4_H06-H02/pVL (antibody, V domains shown)
VH: QVQLQESGPGLVKPSETLSLTCTVSGIDLSSYAMAWVRQAPGKGLEWIGVIDAAGHTFYASWVKGRFTISKDTSKTTVDLQMTSLTAEDTATYFCARDRGDFDVWGQGTLVTVSS
VL: DIQMTQSPSSLSASVGDRVTITCQASQSVYDNYLAWYQQKPGQPPKLLIHAASNLASGVPSRFSGSGSGTEFTLTISSLQPDDFATYYCLGEFSCTTTDCNVFGGGTKVEIK
notes: also called H06-02/pVL; Clone VH4_H06_H02
Regarding B2, in assay [2], the “Fold change (KD, to pVH/pVL)” value amounted to 7.73; the dissociation constant (Kd) worked out at 0.851 nM; the off-rate constant (koff) is 0.00489 s⁻¹; the on-rate (kon) worked out at 5.75e+06 M⁻¹ s⁻¹.

B3: #44 VH6VK4 humanised hIgG1 (antibody, V domains shown)
VH: QVQLQESGPGLVKPSETLSLTCTVSGIDLSSYAMSWVRQAPGKGLEWVSCIDRRGGTFYASWVKGRFTISRDNSKNTLDLQMTSLTAEDTATYYCARDSGAFDPWGQGTLVTVSS
VL: DIQMTQSPSSLSASVGDRVTITCQASQSVYDNYLAWYQQKPGQPPKLLIHAASNLASGVPSRFSGSGSGTEFTLTISSLQPDDFATYYCLGEFSCTTTDCNVFGGGTKVEIK
notes: also called VH6Vκ4
As for B3, the binding result in the assay with Bovine serum albumin was “no binding (tested: supernatant 1:100)”.

B4: #44_VH4VK4_H16-H04/pVL (antibody, V domains shown)
VH: QVQLQESGPGLVKPSETLSLTCTVSGIDLSSYAMAWVRQAPGKGLEWIGAIDRAGNTFYASWVKGRFTISKDTSKTTVDLQMTSLTAEDTATYFCARDAGSFHPWGQGTLVTVSS
VL: DIQMTQSPSSLSASVGDRVTITCQASQSVYDNYLAWYQQKPGQPPKLLIHAASNLASGVPSRFSGSGSGTEFTLTISSLQPDDFATYYCLGEFSCTTTDCNVFGGGTKVEIK
notes: also called Clone VH4_H16_H04; #44_VH4_H16-H04
On to B4, for which, in assay [2], the “Fold change (KD, to pVH/pVL)” value amounted to 7.88; the equilibrium dissociation constant (Kd) was 0.835 nM; the koff came out at 0.00417 s⁻¹; the on-rate (kon) was determined as 4.99e+06 M⁻¹ s⁻¹.

B5: #44 VH6VK3 humanised hIgG1 (antibody, V domains shown)
VH: QVQLQESGPGLVKPSETLSLTCTVSGIDLSSYAMSWVRQAPGKGLEWVSCIDRRGGTFYASWVKGRFTISRDNSKNTLDLQMTSLTAEDTATYYCARDSGAFDPWGQGTLVTVSS
VL: DIQMTQSPSSLSASVGDRVTITCQASQSVYDNYLAWYQQKPGQPPKLLIHAASNLASGVPSRFKGSGSGTEFTLTISSLQPDDFATYYCLGEFSCTTTDCNVFGGGTKVEIK
notes: also called VH6Vκ3
In the case of B5, the binding result in the assay with Bovine serum albumin is “no binding (tested: supernatant 1:100)”.

B6: #44 VH6VK2 humanised hIgG1 (antibody, V domains shown)
VH: QVQLQESGPGLVKPSETLSLTCTVSGIDLSSYAMSWVRQAPGKGLEWVSCIDRRGGTFYASWVKGRFTISRDNSKNTLDLQMTSLTAEDTATYYCARDSGAFDPWGQGTLVTVSS
VL: QIVMTQSPSSLSASVGDRVTITCQASQSVYDNYLAWYQQKPGQPPKLLIHAASNLASGVPSRFKGSGSGTEFTLTISSLQPDDFATYYCLGEFSCTTTDCNVFGGGTKVEIK
notes: also called VH6Vκ2
For B6, the binding result with Bovine serum albumin is “no binding (tested: supernatant 1:100)”.

B7: #44 VH3VK1 humanised hIgG1 (antibody, V domains shown)
VH: QVQLQESGPGLVKPSETLSLTCTVSGIDLSSYAMAWVRQAPGKGLEWIGCIDRRGGTFYASWVKGRFTISKTSTTVDLQMTSLTAEDTATYFCARDSGAFDPWGQGTLVTVSS
VL: QIVMTQSPSSLSASVGDRVTITCQASQSVYDNYLAWYQQKPGQPPKLLIHAASNLASRVPSRFKGSGSGTEFTLTISSLQCDDFATYYCLGEFSCTTTDCNVFGGGTEVVIK
notes: also called VH3Vκ1
As to B7, in the assay with Bovine serum albumin, the binding result was “no binding (tested: supernatant 1:100)”. In addition, in assay [1], the Kd came to 4.35 nM, the “Relative KD (to VH0VK0)” value came to 1.14, the koff was found to be 0.0121 s⁻¹ and the kon was 2.79e+06 M⁻¹ s⁻¹.

B8: #44_VH4VK4_H06-H04/pVL (antibody, V domains shown)
VH: QVQLQESGPGLVKPSETLSLTCTVSGIDLSSYAMAWVRQAPGKGLEWIGVIDAAGHTFYASWVKGRFTISKDTSKTTVDLQMTSLTAEDTATYFCARDAGSFHPWGQGTLVTVSS
VL: DIQMTQSPSSLSASVGDRVTITCQASQSVYDNYLAWYQQKPGQPPKLLIHAASNLASGVPSRFSGSGSGTEFTLTISSLQPDDFATYYCLGEFSCTTTDCNVFGGGTKVEIK
notes: also called H06-04/pVL; Clone VH4_H06_H04
Regarding B8, in assay [2], the “Fold change (KD, to pVH/pVL)” value came to 9.11; the Kd came to 0.722 nM; the koff turned out to be 0.00443 s⁻¹; the on-rate (kon) turned out to be 6.14e+06 M⁻¹ s⁻¹.

B9: #44_VH4VK4_H06-H01/pVL (antibody, V domains shown)
VH: QVQLQESGPGLVKPSETLSLTCTVSGIDLSSYAMAWVRQAPGKGLEWIGVIDAAGHTFYASWVKGRFTISKDTSKTTVDLQMTSLTAEDTATYFCARDVGSFDVWGQGTLVTVSS
VL: DIQMTQSPSSLSASVGDRVTITCQASQSVYDNYLAWYQQKPGQPPKLLIHAASNLASGVPSRFSGSGSGTEFTLTISSLQPDDFATYYCLGEFSCTTTDCNVFGGGTKVEIK
notes: also called H06-01/pVL; Clone VH4H_06_H01
As to B9, in assay [2], the “Fold change (KD, to pVH/pVL)” value was 1.71; the Kd was determined as 3.85 nM; the koff is 0.0121 s⁻¹; the kon turned out to be 3.15e+06 M⁻¹ s⁻¹.

B10: #44_VH4_H07/L2 (antibody, V domains shown)
VH: QVQLQESGPGLVKPSETLSLTCTVSGIDLSSYAMAWVRQAPGKGLEWIGAIDAAGNTFYASWVKGRFTISKDTSKTTVDLQMTSLTAEDTATYFCARDSGAFDPWGQGTLVTVSS
VL: DIQMTQSPSSLSASVGDRVTITCQASQSVYDNYLAWYQQKPGQPPKLLIHAASNLASGVPSRFSGSGSGTEFTLTISSLQPDDFATYYCLGEFSCQDTDCNVFGGGTKVEIKR
notes: also called Clone VH4_H07/L2
Regarding B10, in assay [2], the “Fold change (KD, to pVH/pVL)” value turned out to be 0.26; the equilibrium dissociation constant (Kd) was 24.9 nM; the koff is 0.0124 s⁻¹; the association rate constant (kon) is 497000 M⁻¹ s⁻¹.

B11: #44_VH4_H14/L2 (antibody, V domains shown)
VH: QVQLQESGPGLVKPSETLSLTCTVSGIDLSSYAMAWVRQAPGKGLEWIGAIDSAGSTFYASWVKGRSTISKDTSKTTVDLQMTSLTAEDTATYFCARDSGAFDPWGQGTLVTVSS
VL: DIQMTQSPSSLSASVGDRVTITCQASQSVYDNYLAWYQQKPGQPPKLLIHAASNLASGVPSRFSGSGSGTEFTLTISSLQPDDFATYYCLGEFSCQDTDCNVFGGGTKVEIKR
notes: also called Clone VH4_H14/L2
Consider B11, for which, in assay [2], the “Fold change (KD, to pVH/pVL)” value was found to be 0.52; the Kd worked out at 12.6 nM; the off-rate (koff) turned out to be 0.0161 s⁻¹; the kon was 1.28e+06 M⁻¹ s⁻¹.

B12: #44_VH4_H13/L2 (antibody, V domains shown)
VH: QVQLQESGPGLVKPSETLSLTCTVSGIDLSSYAMAWVRQAPGKGLEWIGAIDSAGNTFYASWVKGRFTISKDTSKTTVDLQMTSLTAEDTATYFCARDSGAFDPWGQGTLVTVSS
VL: DIQMTQSPSSLSASVGDRVTITCQASQSVYDNYLAWYQQKPGQPPKLLIHAASNLASGVPSRFSGSGSGTEFTLTISSLQPDDFATYYCLGEFSCQDTDCNVFGGGTKVEIKR
notes: also called Clone VH4_H13/L2
Take B12: in assay [2], the “Fold change (KD, to pVH/pVL)” value came to 0.28; the Kd is 23.5 nM; the off-rate (koff) is 0.00844 s⁻¹; the on-rate (kon) is 358000 M⁻¹ s⁻¹.

B13: #44_VH4_H06/L2 (antibody, V domains shown)
VH: QVQLQESGPGLVKPSETLSLTCTVSGIDLSSYAMAWVRQAPGKGLEWIGVIDAAGHTFYASWVKGRFTISKDTSKTTVDLQMTSLTAEDTATYFCARDSGTFDPWGQGTLVTVSS
VL: DIQMTQSPSSLSASVGDRVTITCQASQSVYDNYLAWYQQKPGQPPKLLIHAASNLASGVPSRFSGSGSGTEFTLTISSLQPDDFATYYCLGEFSCQDTDCNVFGGGTKVEIKR
notes: also called Clone VH4_H06/L2
In the case of B13, in assay [2], the “Fold change (KD, to pVH/pVL)” value was 3.54; the dissociation constant Kd was determined as 1.86 nM; the koff stood at 0.00841 s⁻¹; the kon came to 4.52e+06 M⁻¹ s⁻¹.

B14: #44_VH4_H09/L2 (antibody, V domains shown)
VH: QVQLQESGPGLVKPSETLSLTCTVSGIDLSSYAMAWVRQAPGKGLEWIGAIDARGNTFYASWVKGRFTISKDTSKTTVDLQMTSLTAEDTATYFCARDSGAFDPWGQGTLVTVSS
VL: DIQMTQSPSSLSASVGDRVTITCQASQSVYDNYLAWYQQKPGQPPKLLIHAASNLASGVPSRFSGSGSGTEFTLTISSLQPDDFATYYCLGEFSCQDTDCNVFGGGTKVEIKR
notes: also called Clone VH4_H09/L2
For the molecule B14, in assay [2], the “Fold change (KD, to pVH/pVL)” value was 0.45; the Kd was determined as 14.6 nM; the koff amounted to 0.0106 s⁻¹; the kon was found to be 728000 M⁻¹ s⁻¹.

One may read the Kd as the equilibrium constant for the complex coming apart. What is called koff is the rate constant with which the complex falls apart. A word on the kon: it is the rate constant with which the complex forms.
